Experimental data published in the supplement of paper PMC6757056.
± gives the standard deviation of the averaged measurements.

B1: library; a variant is named by its letters at N, in order (parent)
chain: GCUGUCACCGGUGUAUUACCCUAGUGGUCGACCGGUCUGAUGAGUCUNNNNNNAGACGAAACAGC

What was measured:
hypoxanthine [1] = variants of: B1; experiment: normalized RNA/DNA level with ligand (relative to sTRSVctl = 100) (log10 (% of sTRSVctl)); ligand: hypoxanthine (xanthine aptamer); higher = less ribozyme self-cleavage, higher mRNA level; details: ligand concentration (+) RNA-Seq: 5 mM, HEK293T, reporter: mCherry (pCS4076), ligand present: yes
In short: (§1)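 RNA level was computed as RNA reads over DNA reads divided by a spiked-in non-cleaving sequence or by the top sequences, then scaled and log-transformed. Scaling was ×100 with log10, the top group was 25 sequences, and the threshold was ≥100 DNA reads. The reads came from HEK293T cells transfected at 4 µg per 6-well well with ribozyme switch library plasmids (mCherry, or eGFP in some ligand experiments). Total RNA was extracted with EDTA 72 h after transfection, with any ligand added 1 h before it.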

hypoxanthine [2] = variants of: B1; experiment: normalized RNA/DNA level without ligand (relative to sTRSVctl = 100) (log10 (% of sTRSVctl)); ligand: hypoxanthine (xanthine aptamer); higher = less ribozyme self-cleavage, higher mRNA level; details: HEK293T, reporter: mCherry (pCS4076), ligand present: no
In short: as §1

Row | Variant | normalized RNA/DNA level with ligand (log10) (hypoxanthine [1]) | normalized RNA/DNA level without ligand (log10) (hypoxanthine [2])
1 | GCGCAA | 1.873 ± 0.014 | 1.52 ± 0.023
2 | GCGCAU | 1.89 ± 0.026 | 1.55 ± 0.044
3 | GCGAUA | 1.88 ± 0.083 | 1.594 ± 0.0079
4 | GCCUUU | 1.94 ± 0.041 | 1.92 ± 0.039
5 | ACGAAC | 1.89 ± 0.036 | 1.58 ± 0.017
6 | UCCUUC | 1.93 ± 0.046 | 1.89 ± 0.062
7 | UCCUUA | 1.956 ± 0.015 | 1.87 ± 0.069
8 | UCCUUU | 2.01 ± 0.04 | 1.94 ± 0.032
9 | UCCUUG | 1.91 ± 0.034 | 1.64 ± 0.022
10 | UCGCCA | 2.016 ± 0.0013 | 1.81 ± 0.034
11 | UCGCCG | 2 ± 0.035 | 1.841 ± 0.008
12 | UCGCCC | 1.981 ± 0.01 | 1.99 ± 0.069
13 | UCGAAU | 1.87 ± 0.043 | 1.476 ± 0.0078
14 | UCGAAC | 1.929 ± 0.011 | 1.734 ± 0.012
15 | UCCUGA | 1.974 ± 0.017 | 1.77 ± 0.069
16 | UCCUGU | 1.93 ± 0.021 | 1.86 ± 0.043
17 | ACCUGU | 1.9472 ± 0.00096 | 1.81 ± 0.033
18 | ACCUGC | 1.99 ± 0.051 | 1.912 ± 0.016
19 | GCGCCU | 2 ± 0.055 | 1.78 ± 0.052
20 | GCGCCG | 1.91 ± 0.03 | 1.44 ± 0.017
21 | GCGCCA | 1.97 ± 0.025 | 1.711 ± 0.01
22 | UCGGCC | 2.04 ± 0.081 | 1.951 ± 0.006
23 | UCGGCU | 1.913 ± 0.014 | 1.8 ± 0.063
24 | UCGGCA | 1.99 ± 0.056 | 1.7 ± 0.098

Row | Variant | normalized RNA/DNA level with ligand (log10) (hypoxanthine [1]) | normalized RNA/DNA level without ligand (log10) (hypoxanthine [2])
25 | CCGGGG | 1.83 ± 0.057 | 1.34 ± 0.084
26 | CCGGGU | 2.04 ± 0.054 | 1.93 ± 0.15
27 | CCCGUA | 1.92 ± 0.015 | 1.85 ± 0.035
28 | CCCGUU | 1.93 ± 0.056 | 1.9 ± 0.024
29 | CCCGUC | 2.027 ± 0.018 | 2.021 ± 0.019
30 | CCCGUG | 1.97 ± 0.026 | 1.812 ± 0.0064
31 | CCGGUC | 1.96 ± 0.039 | 1.95 ± 0.029
32 | CCGGUA | 1.93 ± 0.034 | 1.863 ± 0.0044
33 | GCCGUC | 1.94 ± 0.096 | 1.91 ± 0.074
34 | GCCGUA | 1.965 ± 0.011 | 1.84 ± 0.061
35 | GCCGUG | 1.91 ± 0.025 | 1.48 ± 0.036
36 | UCGCUA | 1.96 ± 0.037 | 1.725 ± 0.0084
37 | UCGCUC | 1.98 ± 0.049 | 2.109 ± 0.015
38 | UCGCUU | 1.984 ± 0.0024 | 1.7 ± 0.035
39 | UCGCUG | 1.98 ± 0.069 | 1.803 ± 0.0034
40 | ACCGAC | 1.967 ± 0.0065 | 1.825 ± 0.017
41 | ACCGAA | 1.897 ± 0.018 | 1.74 ± 0.045
42 | ACCGAG | 1.76 ± 0.057 | 1.301 ± 0.0053
43 | UCGGAC | 1.981 ± 0.002 | 1.877 ± 0.012
44 | UCGGAA | 1.84 ± 0.043 | 1.31 ± 0.017
45 | UCGGAU | 1.86 ± 0.036 | 1.3978 ± 0.00098
46 | ACGCCC | 1.94 ± 0.026 | 1.875 ± 0.0043
47 | ACGCCG | 1.873 ± 0.011 | 1.4 ± 0.032
48 | ACGCCU | 1.945 ± 0.008 | 1.63 ± 0.068

Row | Variant | normalized RNA/DNA level with ligand (log10) (hypoxanthine [1]) | normalized RNA/DNA level without ligand (log10) (hypoxanthine [2])
49 | ACGCCA | 1.95 ± 0.045 | 1.81 ± 0.019
50 | CCGCGA | 1.88 ± 0.018 | 1.62 ± 0.016
51 | CCGCGU | 1.97 ± 0.023 | 1.71 ± 0.064
52 | CCGCGC | 1.963 ± 0.0058 | 1.7 ± 0.06
53 | UCGCAU | 1.87 ± 0.022 | 1.68 ± 0.018
54 | UCGCAC | 1.97 ± 0.069 | 1.827 ± 0.014
55 | ACCCCA | 1.96 ± 0.031 | 1.86 ± 0.062
56 | ACCCCU | 1.967 ± 0.0051 | 1.892 ± 0.0077
57 | ACCCCC | 1.99 ± 0.16 | 1.879 ± 0.013
58 | ACCCCG | 1.86 ± 0.032 | 1.45 ± 0.063
59 | CCCGAC | 1.959 ± 0.0051 | 1.84 ± 0.033
60 | CCCGAA | 1.9 ± 0.085 | 1.76 ± 0.033
61 | CCCGAG | 1.89 ± 0.035 | 1.65 ± 0.022
62 | CCCGAU | 1.97 ± 0.033 | 1.8 ± 0.029
63 | CCGACA | 1.978 ± 0.01 | 1.79 ± 0.025
64 | UCCCUU | 1.92 ± 0.051 | 1.781 ± 0.017
65 | UCCCUA | 1.92 ± 0.033 | 1.79 ± 0.043
66 | UCCCUC | 1.98 ± 0.03 | 1.66 ± 0.14
67 | CCCGGC | 2 ± 0.041 | 1.859 ± 0.0099
68 | CCCGGU | 2 ± 0.069 | 1.92 ± 0.071
69 | CCCCUG | 1.927 ± 0.0039 | 1.81 ± 0.04
70 | CCCCUU | 2 ± 0.045 | 1.913 ± 0.014
71 | CCCCUA | 1.98 ± 0.061 | 1.855 ± 0.0056
72 | GCGCGA | 1.844 ± 0.0031 | 1.51 ± 0.025

Row | Variant | normalized RNA/DNA level with ligand (log10) (hypoxanthine [1]) | normalized RNA/DNA level without ligand (log10) (hypoxanthine [2])
73 | GCGCGU | 1.92 ± 0.064 | 1.58 ± 0.12
74 | GCGCGC | 1.93 ± 0.082 | 1.68 ± 0.026
75 | ACCGUG | 1.8625 ± 0.00016 | 1.45 ± 0.051
76 | ACCGUU | 1.91 ± 0.06 | 1.835 ± 0.011
77 | ACCGUC | 1.982 ± 0.0058 | 2 ± 0.026
78 | GCCCGU | 1.962 ± 0.019 | 1.83 ± 0.044
79 | GCCCGA | 2.012 ± 0.015 | 1.719 ± 0.0081
80 | ACCUCU | 1.99 ± 0.054 | 1.926 ± 0.01
81 | ACCUCC | 1.99 ± 0.03 | 1.919 ± 0.018
82 | ACCUCA | 1.904 ± 0.0082 | 1.89 ± 0.027
83 | ACCUCG | 1.928 ± 0.017 | 1.62 ± 0.062
84 | ACGCGU | 1.95 ± 0.021 | 1.57 ± 0.096
85 | ACGCGA | 1.77 ± 0.072 | 1.29 ± 0.05
86 | ACGGUG | 1.8673 ± 0.00056 | 1.24 ± 0.062
87 | ACGGUC | 1.94 ± 0.039 | 1.87 ± 0.0091
88 | GCCUGU | 1.93 ± 0.024 | 1.83 ± 0.015
89 | GCCUGC | 1.977 ± 0.012 | 1.86 ± 0.045
90 | GCCUGG | 1.94 ± 0.062 | 1.5 ± 0.017
91 | UCGGUG | 1.9763 ± 0.0017 | 1.67 ± 0.028
92 | UCGGUC | 2.034 ± 0.0059 | 1.969 ± 0.012
93 | UCGCGA | 1.89 ± 0.03 | 1.69 ± 0.071
94 | UCGCGG | 1.93 ± 0.1 | 1.78 ± 0.037
95 | UCGCGC | 2.01 ± 0.035 | 1.8 ± 0.024
96 | GCGGCC | 2 ± 0.046 | 1.76 ± 0.076

Row | Variant | normalized RNA/DNA level with ligand (log10) (hypoxanthine [1]) | normalized RNA/DNA level without ligand (log10) (hypoxanthine [2])
97 | GCGGCU | 1.971 ± 0.0061 | 1.84 ± 0.04
98 | GCGGCA | 1.94 ± 0.055 | 1.7 ± 0.052
99 | UCGGGG | 1.98 ± 0.05 | 1.69 ± 0.035
100 | UCGGGC | 2.021 ± 0.017 | 1.99 ± 0.0053
101 | UCGGGU | 1.81 ± 0.075 | 1.55 ± 0.13
102 | ACCCUA | 1.937 ± 0.014 | 1.85 ± 0.047
103 | ACCCUC | 1.936 ± 0.0052 | 1.895 ± 0.00022
104 | ACCCUU | 1.974 ± 0.013 | 1.92 ± 0.06
105 | UCCUCU | 1.99 ± 0.053 | 1.98 ± 0.029
106 | UCCUCA | 2 ± 0.033 | 1.88 ± 0.048
107 | UCCUCG | 1.97 ± 0.065 | 1.68 ± 0.058
108 | UCCUCC | 1.99 ± 0.055 | 1.78 ± 0.039
109 | GCCUAC | 1.954 ± 0.0075 | 1.757 ± 0.0057
110 | GCCUAU | 1.944 ± 0.013 | 1.852 ± 0.011
111 | CCCCAG | 1.84 ± 0.062 | 1.77 ± 0.047
112 | CCCCAU | 1.93 ± 0.036 | 1.87 ± 0.046
113 | UCGACA | 1.93 ± 0.023 | 1.72 ± 0.063
114 | UCGACG | 1.94 ± 0.021 | 1.704 ± 0.007
115 | UCGACC | 1.976 ± 0.015 | 1.955 ± 0.011
116 | UCGACU | 1.93 ± 0.056 | 1.72 ± 0.035
